The text below walks through data of the supplement of paper PMC9170038.

The subject of this series is MS2 coat protein. The experiment in a line: apparent KD of MS2 coat protein; designed switch direction (-1 OFF switch, 1 ON switch): -1; higher = weaker reporter binding. The essentials: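 Each step of the titration lasted 0.8–1.5 h at the lowest concentration and 10–20 min at the highest. The protein, SNAP-549-labelled MS2 coat protein, went from 0.7 or 1.5 nM doubling to 3 µM over RNA switches transcribed on Illumina chips by stalled E. coli RNA polymerase. Normalised cluster fluorescence was curve-fitted, and the per-design median over clusters is given as apparent KD.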

Where [1] appears, read: Eterna round: R95, input ligand: FMN 200 uM.
Where [2] appears, read: Eterna round: R95, input ligand: microRNA oligo, concentration not stated.
Setting [3] is: Eterna round: R95, input ligand: none.
Where [4] appears, read: input ligand: microRNA oligo, concentration not stated.

Regarding “GCAGGAUAAGUCAGGAUAUACCUAUGGAUACAUAGGUAGAAGGGACAUGAGGAUCACCCAUGUGCCUCACCUGC [Fiskers BMX 4 - 57] (puzzle: Brourd's mod of Exclusion 4)”, the “apparent KD of MS2 coat protein” value is, setting by setting: under setting [1], 48.7 nM; under setting [2], 16.6 nM; under setting [3], 16.1 nM.

Regarding “GCAGGUUAAGUAAGGAUAUACCUCUGGAAACAGAGGUAGAAGGUACAUGAGGAUCACCCAUGUUUCUCUUUUGC [Mod of Eli 5 - Jieux - Brourd's mod of Exclusion 4] (Eterna round: R97, puzzle: Brourd's mod of Exclusion 4)”, the “apparent KD of MS2 coat protein” value runs as follows: (input ligand: FMN 200 uM) 24.8 nM; (input ligand: none) 16 nM.

“GCAGGUUAAGUCAGGAUAUACCUAUGGAUACAUAGGUAGAAGGGACAUGAGGAUCACCCAUGUGACUCGCCUGC [Fiskers BMX 4 - 61] (puzzle: Brourd's mod of Exclusion 4)”: the “apparent KD of MS2 coat protein” value under setting [2] stood at 25.6 nM.

As to “GCAUCCAAUGUGAGGAUAUACCUCUGGAUACAUAGGUAGAAGGCACAUGAGGAUCACCCAUGUCCUAAGGAUGC [Fiskers BMX 4 - 28] (puzzle: Brourd's mod of Exclusion 4)”, the “apparent KD of MS2 coat protein” value under setting [2] was 75 nM.

As to “GCAUCCAAUGUGAGGAUAUACCUCUGGAUACAUAGGUAGAAGGCACAUGAGGAUCACCCAUGUUCCUAGGAUGC [Fiskers BMX 4 - 31] (puzzle: Brourd's mod of Exclusion 4)”, the “apparent KD of MS2 coat protein” value under setting [2] turned out to be 32.9 nM.

As to “GCAUCGUGAGGAUAUACAUGAGGAUCACCCAUGUGGCGGAUCUACCAGCCAGCAAAAUGUAGAAGGCAUUGCUU [Eternabot (L2) Solution 19] (Eterna round: R97, puzzle: Exclusion 3)”, the “apparent KD of MS2 coat protein” value runs as follows: (input ligand: FMN 200 uM) 123 nM; (input ligand: none) 142 nM.

With “GCAUCUCAUGUCAGGAUAUGCUGUACCUUGGUACAGCAGAAGGGACAUGAGGAUCACCCAUGUGCCUAAGAUGC [JL-BMX4-4.12] (Eterna round: R97, puzzle: Brourd's mod of Exclusion 4)”, the “apparent KD of MS2 coat protein” value is 1270 nM (input ligand: FMN 200 uM) and 254 nM (input ligand: none).

“GCAUCUCGCAAGGGUACCCACAUGAGGAUCACCCAUGUGAUGAUAAACAGGUUUCGUGCGUCCGUUUUAUCCACUUU [Eternabot (L2) Solution 18] (Eterna round: R97, puzzle: Sensor, turn-off variant 1)”: the “apparent KD of MS2 coat protein” value runs as follows: (input ligand: FMN 200 uM) 737 nM; (input ligand: none) 865 nM.

For the sequence “GCAUGCUAUGUCAGGAUAUACCUCUGGAUACAUAGGUAGAAGGGACAUGAGGAUCACCCAUGUCCUAAACAUGC [Fiskers BMX 4 - 26] (puzzle: Brourd's mod of Exclusion 4)”, under setting [2], the “apparent KD of MS2 coat protein” value stood at 11.4 nM.

As to “GCAUGGAAAGUGAGGAUAUACCACUGGAUACAGUGGUAGAAGGCACAUGAGGAUCACCCAUGUUUCUACCAUGC [Fiskers BMX 4 - 40] (puzzle: Brourd's mod of Exclusion 4)”, the “apparent KD of MS2 coat protein” value under setting [2] was determined as 12.7 nM.

With “GCAUGGCGAGGAUAUACAUGAGGAUCACCCAUGUGAGAAGAAUAAGUGAGGAAGAAAAGUAGAAGGCGCUGUGG [Mat - Exclusion 3 - Mod of Salish D63] (puzzle: Exclusion 3)”, the “apparent KD of MS2 coat protein” value stood at 128 nM under setting [1], 51.5 nM under setting [2] and 85 nM under setting [3].

For “GCAUGGCGAGGAUAUACAUGAGGAUCACCCAUGUGAGAAUAAGAAGUGAGGAAGAAAAGUAGAAGGCGCUGUGG [Mat - Exclusion 3 - Mod of Salish D65] (puzzle: Exclusion 3)”, the “apparent KD of MS2 coat protein” value under setting [1] stood at 173 nM, the “apparent KD of MS2 coat protein” value under setting [2] is 73.8 nM and the “apparent KD of MS2 coat protein” value under setting [3] stood at 84.5 nM.

Take “GCAUGUCUUAAGGAUAUGCUUAGGCGUGAGCCGGCAGAAGGUAAGACAUGAGGAUCACCCAUGUUUUCCUAAAA [jl-ex6-4.31 ViennaUCT mod] (Eterna round: R97, puzzle: Exclusion 6)”: the “apparent KD of MS2 coat protein” value reads like this: (input ligand: FMN 200 uM) 171 nM; (input ligand: none) 24.4 nM.

As to “GCCAACGACUGAGGAUAUGCUUAUAGACAUGAGGAUCACCCAUGUAAAUGGGACAUGUCAAACCAGCAGAAGGCAGGACCUGGC [Inteinrais] (Eterna round: R96, puzzle: Exclusion NG 2)”, the “apparent KD of MS2 coat protein” value runs as follows: (input ligand: FMN 200 uM) 100 nM; under setting [4], 57.5 nM; (input ligand: none) 70.3 nM.

Turning to “GCCACAGCAGGAUAUUCAAUAAUUCACAUGAGGAUCACCCAUGUCGAGCGAAAGCUCGAGGGAGAAGGGCUGUGGC [Mat - Exclusion 5 - Eli mod - D88] (puzzle: Exclusion 5)”, the “apparent KD of MS2 coat protein” value under setting [2] worked out at 34.4 nM.

Regarding “GCCACGGGAGGAUAUACAUAGGAGUUCUCUUCCUGCUCGAGACAUGAGGAUCACCCAUGUAGAAGGCCCGCUGC [Eternabot (L2) Solution 17] (Eterna round: R97, puzzle: Exclusion 2)”, the “apparent KD of MS2 coat protein” value is, setting by setting: (input ligand: FMN 200 uM) 62.2 nM; (input ligand: none) 385 nM.

“GCCACGGGAGGAUAUCGCGGAGGCUACAUGAGGAUCACCCAUGUCUGGUCUUCGUGCUCCCGAGAAGGCCCGUCAG [Bivemaus] (puzzle: Exclusion 5)”: the “apparent KD of MS2 coat protein” value under setting [2] is 13.2 nM.

For “GCCAGAGCAGGAUAUCUAAUAUAUCACAUGAGGAUCACCCAUGUCCAGCGAAAGCUGGAGGGAGAAGGGCUCUGGC [Fiskers Ex 5 - 19] (puzzle: Exclusion 5)”, the “apparent KD of MS2 coat protein” value reads like this: under setting [1], 53.6 nM; under setting [2], 98.4 nM; under setting [3], 106 nM.

“GCCAGAGCAGGAUAUCUAAUGUAUCACAUGAGGAUCACCCAUGUCCAGCGAAAGCUGGAGGGAGAAGGGCUCUGGC [Fiskers Ex 5 - 20] (puzzle: Exclusion 5)”: the “apparent KD of MS2 coat protein” value was 49.9 nM under setting [1], 105 nM under setting [2] and 106 nM under setting [3].

For “GCCAGAGCAGGAUAUUCAAUAAUCCACAUGAGGAUCACCCAUGUCUAGCGAAAGCUAGAGGGAGAAGGGCUCUGGC [Mat - Exclusion 5 - Eli mod - D90] (puzzle: Exclusion 5)”, the “apparent KD of MS2 coat protein” value under setting [2] was 57.2 nM.

As to “GCCAGAGCAGGAUAUUCAAUAAUUCACAUGAGGAUCACCCAUGUCCAGCGAAAGCUAGGAGGAGAAGGGCUCUGGC [Fiskers Ex 5 - 4] (puzzle: Exclusion 5)”, the “apparent KD of MS2 coat protein” value is 15.2 nM under setting [1], 17.2 nM under setting [2] and 17.8 nM under setting [3].

For “GCCAGAGCAGGAUAUUCAAUAUAUCACAUGAGGAUCACCCAUGUCCAGCGAAAGCUGGAGGGAGAAGGGCUCUGGC [Fiskers Ex 5 - 16] (puzzle: Exclusion 5)”, the “apparent KD of MS2 coat protein” value by setting is: under setting [1], 99.5 nM; under setting [2], 416 nM; under setting [3], 390 nM.

As to “GCCAGUGCAGGAUAUUCAAUAAUUCACAUGAGGAUCACCCAUGUCCAGCGAAAGCUGGAAGGAGAAGGGCACUGGC [Mat - Exclusion 5 - Eli mod - D85] (puzzle: Exclusion 5)”, the “apparent KD of MS2 coat protein” value runs as follows: under setting [1], 10.2 nM; under setting [2], 12.8 nM; under setting [3], 14.6 nM.

For the sequence “GCCCGUGCGGAGGAUAUUGAUAUCCCAGUCUAUCAAGAAGGCUGCACAUGAGGAUCACCCAUGUGACCUGUGCU [Retiqule] (puzzle: Exclusion 6)”, the “apparent KD of MS2 coat protein” value under setting [2] was determined as 15.8 nM.

For “GCCCGUGGGCAAGGAUAUCCUACGCUGUUCUGGUUCGUGUCUGUCACAUGAGGAUCACCCAUGUGGGAGAAGGUGCACCAGGGU [Design 52] (Eterna round: R96, puzzle: Exclusion NG 2)”, the “apparent KD of MS2 coat protein” value reads like this: (input ligand: FMN 200 uM) 13.5 nM; under setting [4], 10.7 nM; (input ligand: none) 14.4 nM.

As for “GCCCGUGGGCAAGGAUAUCCUACGCUGUUCUGGUUCGUGUCUGUCACAUGAGGAUCACCCAUGUGGGAGAAGGUGCACUAGGGU [Design 53] (Eterna round: R96, puzzle: Exclusion NG 2)”, the “apparent KD of MS2 coat protein” value is, setting by setting: (input ligand: FMN 200 uM) 19.7 nM; under setting [4], 11.1 nM; (input ligand: none) 16.9 nM.

“GCCCGUGGGCAAGGAUAUCCUACGCUGUUCUGGUUCGUGUCUGUCACAUGAGGAUCACCCAUGUGGGAGAAGGUGCAUUUGGGU [Design 55] (Eterna round: R96, puzzle: Exclusion NG 2)”: the “apparent KD of MS2 coat protein” value came out at 14.1 nM (input ligand: FMN 200 uM), 11.1 nM under setting [4] and 17.3 nM (input ligand: none).

Turning to “GCCGAAAAUGUGAGGAUAUACCUAUGGAUACAUAGGUAGAAGGCACAUGAGGAUCACCCAUGUGUCCAAACGGC [Eli bmx4 4.22] (Eterna round: R97, puzzle: Brourd's mod of Exclusion 4)”, the “apparent KD of MS2 coat protein” value was 58.2 nM (input ligand: FMN 200 uM) and 14.5 nM (input ligand: none).

Take “GCCGAAAGCGUAGGAUAUCGAAUAAAGCGGAAACGCAAGACAUGAGGAUCACCCAUGUGUCCGGACGAGAAGGGCGAAAGCGGC [EXNG2 V2 a] (Eterna round: R96, puzzle: Exclusion NG 2)”: the “apparent KD of MS2 coat protein” value was determined as 33.4 nM (input ligand: FMN 200 uM), 27.1 nM under setting [4] and 34.3 nM (input ligand: none).

“GCCGAUUAAGUCAGGAUAUACCUAUGGAUACAUAGGUAGAAGGGACAUGAGGAUCACCCAUGUUCCUCAUCGGC [Fiskers BMX 4 - 12] (puzzle: Brourd's mod of Exclusion 4)”: the “apparent KD of MS2 coat protein” value runs as follows: under setting [1], 41.6 nM; under setting [2], 13.5 nM; under setting [3], 16.9 nM.

On to “GCCGCGCGAGGAUAUACAUGAGGAUCACCCAUGUGAAAUUAUAGUGAGGAAAUGAAAAGUAGAAGGCGCGCGGA [Mod of Mat 19 - Jieux - Exclusion 3] (Eterna round: R97, puzzle: Exclusion 3)”, for which the “apparent KD of MS2 coat protein” value turned out to be 258 nM (input ligand: FMN 200 uM) and 37 nM (input ligand: none).
